Consider four molecules from US20240360228A1 (BIOLEGEND, published 2024).

In test [1] the target is T1, human CCR8 (human, UniProt P51685 1-355).
T1 construct: Native CCR8 on human PBMC (CCR8+ CD3+ or CCR8+ CD4+ lymphocytes); also called chemokine (C-C motif) receptor 8
The test can be described thus: flow, PBMC CCR8+CD3+; PE-L263G8 staining after isotype block.

For test [2], the target named is T1, human CCR8. The test can be described thus: flow blocking, PBMC CCR8+CD3+; competitor PE-AB5. The method, boiled down:
(§1)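 PE MFI, gated on CCR8+ CD4+ or CD3+ lymphocytes, was compared with isotype-blocked controls and subtracted from 100. Preblocking used 10 μg unlabeled antibody; the competitor was 0.25 μg PE conjugate, stained 15 min in the dark.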

The target of test [3] is T1, human CCR8. Kind of test: flow blocking, PBMC CCR8+CD4+; competitor PE-AB2. The method, boiled down: (§2)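 Measures displacement of a PE-conjugated competitor (0.25 μg, 15 min, dark) after preincubation with 10 μg unlabeled antibody or isotype. CCR8+ CD4+ or CD3+ lymphocyte MFI is read by flow cytometry and reported as percent blocking relative to isotype.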
Test [4] concerns the target T1, human CCR8. Kind of test: flow blocking, PBMC CCR8+CD4+; competitor PE-AB10. The method, boiled down: as §2
Test [5] has as its target T1, human CCR8. The test can be described thus: flow blocking, PBMC CCR8+CD4+; competitor PE-AB6.
For test [6], the target named is T1, human CCR8. The test can be described thus: flow blocking, PBMC CCR8+CD4+; competitor PE-433H. An outline of the steps: (§3)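 Human PBMC (100 μL suspension) were pre-blocked with 10 μg of each unlabelled anti-CCR8 antibody or isotype control. Cells were then stained 15 min in the dark with 0.25 μg of the PE-conjugated competitor antibody plus anti-CD4 or anti-CD3. Read-out by flow cytometry as MFI on CCR8+CD4+ or CCR8+CD3+ lymphocytes.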

The target of test [7] is T1, human CCR8. Kind of test: flow blocking, PBMC CCR8+CD4+; competitor PE-AB13. The method, boiled down:
as §3

Test [8] has as its target T1, human CCR8. The test can be described thus: flow blocking, PBMC CCR8+CD4+; competitor PE-AB4. The method, boiled down:
as §2

The target in test [9] is T1, human CCR8. The test can be described thus: flow blocking, PBMC CCR8+CD3+; competitor PE-AB7. The method, boiled down:
as §1

Test [10] concerns the target T1, human CCR8. Kind of test: flow blocking, PBMC CCR8+CD3+; competitor PE-L263G8. An outline of the steps: as §1
Test [11] concerns the target T1, human CCR8. The test can be described thus: flow blocking, PBMC CCR8+CD4+; competitor PE-AB15. An outline of the steps: as §2
For test [12], the target named is T1, human CCR8. Kind of test: flow blocking, PBMC CCR8+CD4+; competitor PE-AB1. The method, boiled down:
as §2

The target of test [13] is human chemokine (C-C motif) receptor 8 (CCR8) (human) (UniProt P51685). The test can be described thus: flow cytometry blocking, PBMC CCR8+ CD4+ cells; competitor PE-AB6 (its MFI is read).
human chemokine (C-C motif) receptor 8 (CCR8) (human), sequence (P51685 whole entry): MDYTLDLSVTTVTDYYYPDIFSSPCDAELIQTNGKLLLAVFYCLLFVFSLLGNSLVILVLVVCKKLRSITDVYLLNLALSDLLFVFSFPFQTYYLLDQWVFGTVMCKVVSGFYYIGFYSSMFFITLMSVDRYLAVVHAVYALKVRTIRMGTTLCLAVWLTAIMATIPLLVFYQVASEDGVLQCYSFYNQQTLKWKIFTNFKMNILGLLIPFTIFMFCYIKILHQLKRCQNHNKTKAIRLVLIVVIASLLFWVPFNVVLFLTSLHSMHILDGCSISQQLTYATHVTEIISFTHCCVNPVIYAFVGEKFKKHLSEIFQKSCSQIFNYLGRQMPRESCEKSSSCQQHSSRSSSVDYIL
Test [14] has as its target T1, human CCR8. The test can be described thus: flow blocking, PBMC CCR8+CD4+; competitor PE-AB5. The method, boiled down:
as §2

Test [15] addresses T1, human CCR8. Kind of test: flow blocking, PBMC CCR8+CD4+; competitor PE-AB11. The method, boiled down: as §2
Test [16] has as its target T1, human CCR8. The test can be described thus: flow blocking, PBMC CCR8+CD3+; competitor PE-AB11. The method, boiled down: as §1
Test [17] concerns the target T1, human CCR8. The test can be described thus: flow blocking, PBMC CCR8+CD3+; competitor PE-AB14. An outline of the steps: as §1
The target of test [18] is T1, human CCR8. The test can be described thus: flow blocking, PBMC CCR8+CD3+; competitor PE-AB12. An outline of the steps:
as §1

For test [19], the target named is T1, human CCR8. The test can be described thus: flow blocking, PBMC CCR8+CD3+; competitor PE-AB15. The method, boiled down: as §1
For test [20], the target named is T1, human CCR8. Kind of test: flow blocking, PBMC CCR8+CD3+; competitor PE-AB6. The method, boiled down: as §1
In test [21] the target is T1, human CCR8. The test can be described thus: flow blocking, PBMC CCR8+CD3+; competitor PE-AB8. An outline of the steps:
as §1

Test [22] deals with T1, human CCR8. Kind of test: flow blocking, PBMC CCR8+CD3+; competitor PE-AB10. The method, boiled down: as §1
The target of test [23] is T1, human CCR8. The test can be described thus: flow blocking, PBMC CCR8+CD3+; competitor PE-433H. The method, boiled down: as §1
Test [24] has as its target T1, human CCR8. The test can be described thus: flow blocking, PBMC CCR8+CD4+; competitor PE-AB12. The method, boiled down:
as §2

In test [25] the target is T1, human CCR8. The test can be described thus: flow blocking, PBMC CCR8+CD3+; competitor PE-AB13. An outline of the steps: as §1
Test [26] concerns the target T1, human CCR8. The test can be described thus: flow blocking, PBMC CCR8+CD4+; competitor PE-AB3. An outline of the steps:
as §2

Test [27] has as its target T1, human CCR8. Kind of test: flow blocking, PBMC CCR8+CD4+; competitor PE-AB14. The method, boiled down:
as §3

Test [28] concerns the target T1, human CCR8. Kind of test: flow, PBMC CCR8+CD3+; PE-433H staining after isotype block.
For test [29], the target named is T1, human CCR8. Kind of test: flow, PBMC CCR8+CD4+; PE-433H staining after isotype block.
Test [30] has as its target T2, human chemokine (C-C motif) receptor 8 (CCR8) (human, UniProt P51685 1-355).
T2 construct: On human peripheral blood lymphocytes / PBMC (native) or on human CCR8 GFP-transfected Ba/F3 cells; also called hCCR8; human CCR8
The test can be described thus: flow cytometry blocking, PBMC CCR8+ CD4+ cells; competitor PE-AB11 (its MFI is read). An outline of the steps:
as §2

For test [31], the target named is T2, human chemokine (C-C motif) receptor 8 …. Kind of test: flow cytometry blocking, PBMC CCR8+ CD4+ cells; competitor PE-AB14 (its MFI is read). An outline of the steps:
as §2

For test [32] the target is unchanged. The test can be described thus: flow cytometry blocking, PBMC CCR8+ CD4+ cells; competitor PE-AB13 (its MFI is read). An outline of the steps: as §2
Test [33] has the same target. The test can be described thus: cell-based or functional assay.
Test [34] shares this target. Kind of test: flow cytometry blocking, PBMC CCR8+ CD4+ cells; competitor PE-AB6 (its MFI is read). The method, boiled down:
as §2

The target is the same in test [35]. The test can be described thus: flow cytometry blocking, PBMC CCR8+ CD4+ cells; competitor PE-AB2 (its MFI is read). An outline of the steps:
as §2

The target is the same in test [36]. The test can be described thus: flow cytometry blocking, PBMC CCR8+ CD4+ cells; competitor PE-AB3 (its MFI is read). An outline of the steps: as §2
Test [37] has the same target. Kind of test: cell-based or functional assay. The source holds these as a separate data set.
For test [38] the target is unchanged. The test can be described thus: flow cytometry blocking, PBMC CCR8+ CD4+ cells; competitor PE-AB10 (its MFI is read). An outline of the steps:
as §2

Test [39] has the same target. The test can be described thus: flow cytometry blocking, PBMC CCR8+ CD4+ cells; competitor PE-AB1 (its MFI is read). An outline of the steps:
as §2

Test [40] shares this target. Kind of test: flow cytometry blocking, PBMC CCR8+ CD4+ cells; competitor PE-AB12 (its MFI is read). An outline of the steps: as §2
Test [41] has the same target. The test can be described thus: flow cytometry blocking, PBMC CCR8+ CD4+ cells; competitor PE-AB15 (its MFI is read). An outline of the steps: as §2
The target is the same in test [42]. Kind of test: flow cytometry blocking, PBMC CCR8+ CD4+ cells; competitor PE-AB5 (its MFI is read). The method, boiled down: as §2
Test [43] has the same target. The test can be described thus: flow cytometry blocking, PBMC CCR8+ CD4+ cells; competitor PE-ABII (its MFI is read). An outline of the steps:
as §2

Test [44] shares this target. Kind of test: flow cytometry blocking, PBMC CCR8+ CD4+ cells; competitor PE-AB4 (its MFI is read). The method, boiled down:
as §2

T2 sequence (P51685 whole entry): as above
T1 sequence (P51685 whole entry): as above

Turning to Commercial L263G8 (antibody), the MFI with human CCR8 [1] amounted to 674.

In the case of isotype control (antibody), the % Blocking with human CCR8 [2], with human CCR8 [3], with human CCR8 [4], with human CCR8 [5], with human CCR8 [6] and with human CCR8 [7] was 0% in each case. The % Blocking (in the test with human CCR8 [8]; with human CCR8 [9]; with human CCR8 [10]; in the test with human CCR8 [11]; in the test with human CCR8 [12]; in test [13]) was 0% throughout. The % Blocking in the test with human CCR8 [14], with human CCR8 [15], with human CCR8 [16], in the test with human CCR8 [17], with human CCR8 [18] and in the test with human CCR8 [19] was 0% throughout. In addition, the % Blocking with human CCR8 [20], with human CCR8 [21], in the test with human CCR8 [22], with human CCR8 [23], with human CCR8 [24] and with human CCR8 [25] was 0% in each case. In addition, the % Blocking with human CCR8 [26] and with human CCR8 [27] was 0% throughout.

B1: Commercial 433H (antibody, from another filing, V domains shown)
VH: EVQLVETGGGLVQPKGSLRLSCAASGFPFNTFAMNWVRQAPGKGLEWLARIRSKSNNYATYYADSVKDRFTISRDDSRRMLYLLMNNVKFEDTAIYYCVRGKENNYGYAMDYWGQGTSVTVSS
VL: DIVMTQAAPSVPVTPGESVSISCRSSQSLLHSNGNTYLYWFLQRPGQSPQLLIYRMSNLASGVPDRFSGSGSGTAFTLRISRVEAEDVGVYYCMQHLEYPFTFGIGTKLELKR
In the test with human CCR8 [28], B1 displayed an MFI of 886. In the test with human CCR8 [29], this molecule showed a % Positive cells of 1.76%.

B2: AB11 (antibody, V domains shown)
VH: EVQLVESGGGLVQPKGSLKLSCAASGFAFNTYAMNWVRQAPGKGLEWIARLRSKSNFYATYYADSVKDRFTISRDDSQSMLYLQMNNLKTEDTAVYYCVRGRELGPSYAMDYWGQGTSVTVSS
VL: DIVMTQAAPSVPVTPGESVSISCRSSKSLLHSNGNTYLYWFLQRPGQSPQLLIYRMSNLASGVPDRFSGSGSGTAFTLRISRVEAEDVGVYYCMQHLEYPYTFGGGTKLEIK
notes: Hybridoma monoclonal; also called antibody 11; clone 11
Turning to B2, the “% Blocking” value in [30] is 25.3%; in test [31] it was -1190%; in test [32] it was 7.44%; in test [34], -36.2%; in test [35], -53.5%; in test [36], -61.7%. For the same molecule, the “% Blocking” value in test [38] is 34.5%; in test [39] it was -48.1%; in test [40] it was 0.83%; in [41], -75.1%; in test [42] it was -36%; in [43], 16.6%. In test [44], the “% Blocking” value was -53.4%. The MFI in [30] came to 674; in test [31] it was 11400; in test [32], 867; in test [34] it was 1070; in test [35] it was 1030; in test [36], 1120. Further, the MFI in [38] was found to be 661; in [39], 971; in test [40], 968; in test [41], 1390; in [42] it was 1020; in test [43], 924. The same molecule showed an MFI in test [44] of 1050. For the same molecule, in [33], the “ratio of Target/Control cells after AB11 plus complement” value worked out at 0.103. Moreover, the “% hCCR8-Ba/F3 - THP-1 complexes” value in test [37] came to 1.12%.
